Reference: publication doi:10.64898/2025.12.06.692711, “Archaeal histone HTkC hypercompacts DNA”

Molecular target: T1, HTkC (Thermococcus kodakarensis, UniProt Q5JDW7)
T1 sequence: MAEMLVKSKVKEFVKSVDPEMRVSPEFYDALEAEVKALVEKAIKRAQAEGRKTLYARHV
Test: X-ray crystallography; 1.95 A; EMSA: 50 mM Tris-HCl pH 7.0, 75 mM KCl, 14.5% glycerol, room temperature 30 min, gel in 0.5x TBE at 4 C; TPM: 50 mM Tris pH 7.0, 75 mM KCl
Details: protein: recombinant; chain copies: 4; blunt

B1: 30 bp-GC50 (dsDNA)
DNA 1: TTAAAGCCCGTTAAAGCCCGTTAAAGCCCG
DNA 2: CGGGCTTTAACGGGCTTTAACGGGCTTTAA
B1: binds.
